# Laboratory results reported in US20240116985A1, “STAPLED PEPTIDES AND METHODS THEREOF” (priority 2020, published 2024).
# Starred links: 1 amine or outer side, 2 acyl side, 3 side chain; linkers in the order of their positions; H or OH if unused. Positions of bridges follow the written chain, without caps; N, C: chain ends. Non-standard residues stand in square brackets, D forms with d. Primed or numbered codes have the meaning given here. No end group written: not given here. ξ: configuration not given here. *: point of attachment. PyrS2″ = (S)-3-amino-1-((pent-4-en-1-yloxy)carbonyl)pyrrolidine-3-carboxylic acid (stapling residue), C=CCCCOC(=O)N1CC[C@@](N[*:1])(C(=O)[*:2])C1; B5(4) = 2,2-bis(4-pentenyl)glycine = 2-amino-2-(pent-4-en-1-yl)hept-6-enoic acid (stitching residue), C=CCCCC(CCCC=C)(N[*:1])C(=O)[*:2]; B5(5) = 2,2-bis(4-pentenyl)glycine, 2-amino-2-(pent-4-en-1-yl)hept-6-enoic acid (stitching residue), C=CCCCC(CCCC=C)(N[*:1])C(=O)[*:2]; B5(21) = 2-amino-2-(pent-4-en-1-yl)hept-6-enoic acid, bis(4-pentenyl)glycine (stitching residue), C=CCCCC(CCCC=C)(N[*:1])C(=O)[*:2]; TfeGA = (S)-2-amino-3-((carboxymethyl)(2,2,2-trifluoroethyl)amino)propanoic acid, O=C([C@H](CN(CC(=O)[*:3])CC(F)(F)F)N[*:1])[*:2]; PyrS2 = (S)-3-amino-1-((pent-4-en-1-yloxy)carbonyl)pyrrolidine-3-carboxylic acid, C=CCCCOC(=O)N1CC[C@@](N[*:1])(C(=O)[*:2])C1; B5(3) = 2,2-bis(4-pentenyl)glycine (stitching residue), C=CCCCC(CCCC=C)(N[*:1])C(=O)[*:2]; B5 = 2-amino-2-(pent-4-en-1-yl)hept-6-enoic acid, C=CCCCC(CCCC=C)(N[*:1])C(=O)[*:2]; Phe(3-COOH) = N[C@@H](Cc1cccc(C(=O)O)c1)C(=O)O; Phe(2-Cl) = N[C@@H](Cc1ccccc1Cl)C(=O)O; Bta = N[C@@H](Cc1csc2ccccc12)C(=O)O; Lys(iPr) = CC(C)NCCCC[C@H](N)C(=O)O; hTyr = N[C@@H](CCc1ccc(O)cc1)C(=O)O; αAllylPro = C=CC[C@@]1(C(=O)O)CCCN1; tBuAla = CC(C)(C)C[C@H](N)C(=O)O; 3Thi = N[C@@H](Cc1ccsc1)C(=O)O; Cha = N[C@@H](CC1CCCCC1)C(=O)O; Thr(ol) = C[C@@H](O)[C@H](N)CO; ξβ3hD = NC(CC(=O)O)CC(=O)O; hSer = N[C@@H](CCO)C(=O)O; Aib = CC(C)(N)C(=O)O; iPr = CC(C)*
# Molecular target: full-length beta-Catenin (Uniprot ID P35222) (Homo sapiens (Human)) (UniProt P35222)
# Test: fluorescence polarization competition; full-length beta-catenin, competitor 5FAM-TCF4(10-53) probe
Binder,IC50,EC50
"Ac-[αAllylPro]D[tBuAla][B5(21)]DD[Aib][Aib]FL[PyrS2″][3Thi][Bta]Q-NH2 (staple 1-4, 4-11; also: earlier eluting HPLC peak (staple isomer composition)) [I-1179]",346 nM,
"Ac-[αAllylPro]D[tBuAla][B5(21)]DTAAFT[PyrS2″][Phe(2-Cl)][Bta]Q-NH2 (staple 1-4, 4-11) [I-1168]",25 nM,
"Ac-[αAllylPro]D[tBuAla][B5(21)]DTAAFL[PyrS2″][Phe(2-Cl)][Bta]S-NH2 (staple 1-4, 4-11) [I-1172]",45 nM,
"[αAllylPro]D[tBuAla][B5]DDAAFF[PyrS2][Cha][Bta]Q-NH2 (staple 1-4, 4-11) [I-1331]",,75 nM
"Ac-[αAllylPro]D[tBuAla][B5(4)]DD[Aib]AFL[PyrS2″][3Thi][Bta]Q-NH2 (staple 1-4, 4-11) [I-1177]",25 nM,
"Ac-[αAllylPro]D[tBuAla][B5(4)]DFAAFL[PyrS2″][3Thi][Bta]Q-NH2 (staple 1-4, 4-11) [I-1441]",327 nM,
"Ac-[αAllylPro]D[tBuAla][B5(21)]DDA[Aib]FL[PyrS2″][3Thi][Bta]Q-NH2 (staple 1-4, 4-11) [I-1178]",54.5 nM,
"Ac-[αAllylPro]D[tBuAla][B5(4)]DD[Lys(iPr)]AFL[PyrS2″][Phe(2-Cl)][Bta][Thr(ol)] (staple 1-4, 4-11) [I-1313]",,12 nM
"Ac-[αAllylPro][ξβ3hD][tBuAla][B5(4)]D[TfeGA]AAFN[PyrS2″][3Thi][Bta]Q-NH2 (staple 1-4, 4-11) [I-1161]",24 nM,
"Ac-[αAllylPro]D[tBuAla][B5(21)]DTAAFL[PyrS2″][3Thi][Bta]S-NH2 (staple 1-4, 4-11) [I-1171]",70 nM,
"Ac-[αAllylPro]D[tBuAla][B5(4)]DTAAFL[PyrS2″][3Thi][Bta]Q-NH2 (staple 1-4, 4-11) [I-1167]",34 nM,
"Ac-[αAllylPro]D[Cha][B5(21)]DTAAFL[PyrS2″][3Thi][Bta]Q-NH2 (staple 1-4, 4-11) [I-1174]",43 nM,
"Ac-[αAllylPro]D[tBuAla][B5(4)]DTAAFT[PyrS2″][3Thi][Bta]Q-NH2 (staple 1-4, 4-11) [I-1166]",14 nM,
"Ac-[αAllylPro]D[tBuAla][B5(21)]DTAAFL[PyrS2″][Phe(2-Cl)][Bta]Q-NH2 (staple 1-4, 4-11) [I-1169]",159 nM,
"Ac-[αAllylPro]D[Cha][B5(21)]DTAAFL[PyrS2″][Phe(2-Cl)][Bta]Q-NH2 (staple 1-4, 4-11) [I-1176]",169 nM,
"Ac-[αAllylPro]D[tBuAla][B5(4)]DLAAFL[PyrS2″][3Thi][Bta]Q-NH2 (staple 1-4, 4-11) [I-1444]",6560 nM,
"Ac-[αAllylPro]D[Cha][B5(21)]DTAAFT[PyrS2″][Phe(2-Cl)][Bta]Q-NH2 (staple 1-4, 4-11) [I-1175]",24 nM,
"Ac-[αAllylPro]D[tBuAla][B5(4)]DTAAFT[PyrS2″][3Thi][Bta]S-NH2 (staple 1-4, 4-11) [I-1170]",15 nM,
"Ac-[αAllylPro]D[Cha][B5(4)]DTAAFT[PyrS2″][3Thi][Bta]Q-NH2 (staple 1-4, 4-11) [I-1173]",12 nM,

# Molecular target: full-length beta-Catenin (Uniprot ID P35222) (Homo sapiens (Human)) (UniProt P35222)
# Test: fluorescence polarization competition; full-length beta-catenin; competitor 5FAM-TCF4(10-53) probe
# Target sequence in this assay (P35222 whole entry, one chain of several): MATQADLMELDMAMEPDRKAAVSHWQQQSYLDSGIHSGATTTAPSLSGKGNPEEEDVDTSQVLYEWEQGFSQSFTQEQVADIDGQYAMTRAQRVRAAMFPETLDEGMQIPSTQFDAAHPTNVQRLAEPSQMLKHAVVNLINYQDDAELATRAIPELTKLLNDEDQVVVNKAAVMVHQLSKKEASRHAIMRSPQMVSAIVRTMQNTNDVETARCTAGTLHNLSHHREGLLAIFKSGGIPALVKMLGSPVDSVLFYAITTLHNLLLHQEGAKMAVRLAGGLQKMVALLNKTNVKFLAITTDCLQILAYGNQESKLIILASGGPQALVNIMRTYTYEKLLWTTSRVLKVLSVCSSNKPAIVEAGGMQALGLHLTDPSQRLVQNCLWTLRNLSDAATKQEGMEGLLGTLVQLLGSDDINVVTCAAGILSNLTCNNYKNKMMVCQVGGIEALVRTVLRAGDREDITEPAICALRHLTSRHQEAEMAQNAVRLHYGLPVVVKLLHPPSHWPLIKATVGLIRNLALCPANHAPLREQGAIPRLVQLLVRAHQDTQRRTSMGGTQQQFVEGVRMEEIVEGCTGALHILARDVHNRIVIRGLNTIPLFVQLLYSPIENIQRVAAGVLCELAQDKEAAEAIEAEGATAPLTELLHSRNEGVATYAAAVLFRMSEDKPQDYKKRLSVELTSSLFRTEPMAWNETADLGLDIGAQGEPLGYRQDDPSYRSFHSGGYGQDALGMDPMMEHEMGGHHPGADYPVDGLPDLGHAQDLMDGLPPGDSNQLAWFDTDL
row,Binder,EC50
1,"Ac-[αAllylPro]D[tBuAla][B5(21)]DD[Aib][Aib]FL[PyrS2″][3Thi][Bta]Q-NH2 (staple 1-4, 4-11; also: earlier eluting HPLC peak (staple isomer composition)) [I-1179]",346 nM
2,"Ac-[αAllylPro]D[tBuAla][B5(21)]DTAAFT[PyrS2″][Phe(2-Cl)][Bta]Q-NH2 (staple 1-4, 4-11) [I-1168]",25 nM
3,"Ac-[αAllylPro]D[tBuAla][B5(21)]DTAAFL[PyrS2″][Phe(2-Cl)][Bta]S-NH2 (staple 1-4, 4-11) [I-1172]",45 nM
4,"Ac-[αAllylPro]D[tBuAla][B5(4)]DD[Aib]AFL[PyrS2″][3Thi][Bta]Q-NH2 (staple 1-4, 4-11) [I-1177]",25 nM
5,"Ac-[αAllylPro]D[tBuAla][B5(21)]DDA[Aib]FL[PyrS2″][3Thi][Bta]Q-NH2 (staple 1-4, 4-11) [I-1178]",54.5 nM
6,"Ac-[αAllylPro][ξβ3hD][tBuAla][B5(4)]D[TfeGA]AAFN[PyrS2″][3Thi][Bta]Q-NH2 (staple 1-4, 4-11) [I-1161]",24 nM
7,"Ac-[αAllylPro]D[tBuAla][B5(21)]DTAAFL[PyrS2″][3Thi][Bta]S-NH2 (staple 1-4, 4-11) [I-1171]",70 nM
8,"Ac-[αAllylPro]D[tBuAla][B5(4)]DTAAFL[PyrS2″][3Thi][Bta]Q-NH2 (staple 1-4, 4-11) [I-1167]",34 nM
9,"Ac-[αAllylPro]D[Cha][B5(21)]DTAAFL[PyrS2″][3Thi][Bta]Q-NH2 (staple 1-4, 4-11) [I-1174]",43 nM
10,"Ac-[αAllylPro]D[tBuAla][B5(4)]DTAAFT[PyrS2″][3Thi][Bta]Q-NH2 (staple 1-4, 4-11) [I-1166]",14 nM
11,"Ac-[αAllylPro]D[tBuAla][B5(21)]DTAAFL[PyrS2″][Phe(2-Cl)][Bta]Q-NH2 (staple 1-4, 4-11) [I-1169]",159 nM
12,"Ac-[αAllylPro]D[Cha][B5(21)]DTAAFL[PyrS2″][Phe(2-Cl)][Bta]Q-NH2 (staple 1-4, 4-11) [I-1176]",169 nM
13,"Ac-[αAllylPro]D[Cha][B5(21)]DTAAFT[PyrS2″][Phe(2-Cl)][Bta]Q-NH2 (staple 1-4, 4-11) [I-1175]",24 nM
14,"Ac-[αAllylPro]D[tBuAla][B5(4)]DTAAFT[PyrS2″][3Thi][Bta]S-NH2 (staple 1-4, 4-11) [I-1170]",15 nM
15,"Ac-[αAllylPro]D[Cha][B5(4)]DTAAFT[PyrS2″][3Thi][Bta]Q-NH2 (staple 1-4, 4-11) [I-1173]",12 nM

# Molecular target: full-length beta-Catenin (Uniprot ID P35222) (Homo sapiens (Human)) (UniProt P35222)
# Test: fluorescence polarization competition; competitor 5FAM-TCF4(10-53) probe on full-length beta-catenin
# Target sequence in this assay (P35222 whole entry, one chain of several): as above
row,Binder,IC50
1,"Ac-[αAllylPro]D[tBuAla][B5(4)]D[hTyr]AA[Phe(3-COOH)]N[PyrS2″][3Thi][Bta]Q-NH2 (staple 1-4, 4-11; also: later eluting HPLC isomer composition) [I-2115]",29 nM
2,"Ac-[αAllylPro]D[tBuAla][B5(4)]DYAA[Phe(3-COOH)]L[PyrS2″][3Thi][Bta]Q-NH2 (staple 1-4, 4-11) [I-2126]",68 nM
3,"[αAllylPro]D[tBuAla][B5]DDAAFF[PyrS2][Cha][Bta]Q-NH2 (staple 1-4, 4-11) [I-1331]",75 nM
4,"Ac-[αAllylPro]D[tBuAla][B5(4)]DWAA[Phe(3-COOH)][hSer][PyrS2″][3Thi][Bta]Q-NH2 (staple 1-4, 4-11) [I-2128]",29 nM
5,"Ac-[αAllylPro]D[tBuAla][B5(4)]DD[Lys(iPr)]AFL[PyrS2″][Phe(2-Cl)][Bta][Thr(ol)] (staple 1-4, 4-11) [I-1313]",12 nM
6,"Ac-[αAllylPro]D[tBuAla][B5(4)]DYAA[Phe(3-COOH)][hSer][PyrS2″][3Thi][Bta]Q-NH2 (staple 1-4, 4-11; also: later eluting HPLC isomer composition) [I-2125]",26 nM
7,"Ac-[αAllylPro]D[tBuAla][B5(4)]DHAA[Phe(3-COOH)]N[PyrS2″][3Thi][Bta]Q-NH2 (staple 1-4, 4-11; also: later eluting HPLC isomer composition) [I-2119]",29 nM
8,"Ac-[αAllylPro]D[tBuAla][B5(4)]D[hTyr]AA[Phe(3-COOH)][hSer][PyrS2″][3Thi][Bta]Q-NH2 (staple 1-4, 4-11; also: later eluting HPLC isomer composition) [I-2117]",19 nM
9,"Ac-[αAllylPro]D[tBuAla][B5(4)]DHAA[Phe(3-COOH)]N[PyrS2″][3Thi][Bta]Q-NH2 (staple 1-4, 4-11; also: earlier eluting HPLC isomer composition) [I-2118]",21 nM
10,"Ac-[αAllylPro]D[tBuAla][B5(4)]D[hTyr]AA[Phe(3-COOH)][hSer][PyrS2″][3Thi][Bta]Q-NH2 (staple 1-4, 4-11; also: earlier eluting HPLC isomer composition) [I-2116]",19 nM
11,"Ac-[αAllylPro]D[tBuAla][B5(4)]DYAA[Phe(3-COOH)][hSer][PyrS2″][3Thi][Bta]Q-NH2 (staple 1-4, 4-11; also: earlier eluting HPLC isomer composition) [I-2124]",29 nM
12,"Ac-[αAllylPro]D[tBuAla][B5(4)]DHAA[Phe(3-COOH)]L[PyrS2″][3Thi][Bta]Q-NH2 (staple 1-4, 4-11; also: later eluting HPLC isomer composition) [I-2123]",12 nM
13,"Ac-[αAllylPro]N[Cha][B5(3)]DQ[Lys(iPr)]AFN[PyrS2″]F[Bta]Q-NH2 (staple 1-4, 4-11) [I-2113]",164 nM
14,"Ac-[αAllylPro]D[tBuAla][B5(4)]DWAA[Phe(3-COOH)]N[PyrS2″][3Thi][Bta]Q-NH2 (staple 1-4, 4-11) [I-2127]",36 nM
15,"Ac-[αAllylPro]D[tBuAla][B5(4)]DHAA[Phe(3-COOH)]L[PyrS2″][3Thi][Bta]Q-NH2 (staple 1-4, 4-11; also: earlier eluting HPLC isomer composition) [I-2122]",12 nM
16,"Ac-[αAllylPro]D[tBuAla][B5(4)]DWAA[Phe(3-COOH)]L[PyrS2″][3Thi][Bta]Q-NH2 (staple 1-4, 4-11) [I-2129]",105 nM
17,"Ac-[αAllylPro]D[tBuAla][B5(4)]D[hTyr]AA[Phe(3-COOH)]N[PyrS2″][3Thi][Bta]Q-NH2 (staple 1-4, 4-11; also: earlier eluting HPLC isomer composition) [I-2114]",32 nM

# Molecular target: beta-catenin (Homo sapiens (Human)) (UniProt P35222)
# Test: fluorescence polarization competition; full-length beta-catenin with 5FAM-TCF4(10-53) probe as competitor
# beta-catenin (Homo sapiens (Human)), sequence (P35222 whole entry): as the sequence (P35222 whole entry, one chain of several) above
row,Binder,EC50
1,"Ac-[αAllylPro]D[tBuAla][B5(4)]DFAAFL[PyrS2″][3Thi][Bta]Q-NH2 (staple 1-4, 4-11) [I-1441]",327 nM
2,"Ac-[αAllylPro]D[tBuAla][B5(4)]DLAAFL[PyrS2″][3Thi][Bta]Q-NH2 (staple 1-4, 4-11) [I-1444]",6560 nM
